Source: US20160340421A1 (Regeneron, published 2016)
Residue numbers refer to the chain shown, from its start.

T1: hGDF11 homodimer (human, UniProt O95390 299-407)
T1 sequence (looked up): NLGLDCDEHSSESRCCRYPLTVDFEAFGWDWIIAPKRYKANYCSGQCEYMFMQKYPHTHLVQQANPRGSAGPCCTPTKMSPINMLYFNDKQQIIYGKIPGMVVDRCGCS

T2: Human GDF8 homodimer (mature human Growth and Differentiation Factor-8) (human, UniProt O14793 267-375)
T2 sequence: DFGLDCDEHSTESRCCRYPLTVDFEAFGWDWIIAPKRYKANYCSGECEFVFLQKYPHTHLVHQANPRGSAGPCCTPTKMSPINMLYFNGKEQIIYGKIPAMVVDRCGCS

T3: B48 chimera: GDF8.1-47.BMP2.48-77.GDF8.73-109
T3 construct: CHO.hFurin supernatant
T3 chain: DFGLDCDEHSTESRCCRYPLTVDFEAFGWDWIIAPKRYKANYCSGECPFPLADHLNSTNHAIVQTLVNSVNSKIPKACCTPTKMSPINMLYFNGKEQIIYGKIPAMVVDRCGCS

T4: B91 chimera: GDF8.1-90.BMP2.96-110.GDF8.106-109
T4 construct: CHO.hFurin supernatant
T4 chain: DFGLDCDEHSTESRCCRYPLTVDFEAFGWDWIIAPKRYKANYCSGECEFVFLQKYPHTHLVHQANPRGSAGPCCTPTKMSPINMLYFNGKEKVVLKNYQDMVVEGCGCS

T5: T65 chimera: GDF8.1-64.TGFβ1.69-76.GDF8.73-109 (Mus musculus (Mouse), UniProt O08689 268-376)
T5 construct: CHO.hFurin supernatant
T5 chain: T2 sequence with R67G, G68A, G71A

T6: GDF8/TGFβ[48-72] chimera (T48): GDF8.1-47.TGFβ1.49-76.GDF8.73-109 (human GDF8 with human TGFβ-1 sequence)
T6 chain: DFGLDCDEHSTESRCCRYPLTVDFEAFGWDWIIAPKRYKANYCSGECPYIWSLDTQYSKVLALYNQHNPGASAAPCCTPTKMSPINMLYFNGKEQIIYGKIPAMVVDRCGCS

B1: 1A2 (antibody, V domains shown)
VH: EVQLLESGGGLVQPGGSLRLSCAASGFTSITYAMSWVRQAPGKGLEWVSAISVSGTNTYYADSVKGRFTISRDKSKNMLYLQMNSLRAEDTAVYYCAKDLLHNWKYGTFDIWGQGTMVTVSS
VL: EIVMTQSPATLSVSPGERATLSCRASQSVDSNLVWYQQKPGQVPRLLIYGASTRATGIPARFSGSGSGTEFTLTISSLQSEDFAVYYCQQYNKWPLTFGGGTKVEIK
notes: also called 1A2 mAb
B2: 1A2-hFc (antibody, V domains shown)
VH: B1 VH
VL: B1 VL
B3: 8D12 (antibody, V domains shown)
VH: QVQLVESGGGVVQPGRSLRLSCAASGFTFSRYGIHWVRQAPGKGLEWVAVISYDGSDEYYVDSVKGRFSISRDNSKNTLYLQMNSLRPADSAVYYCVKGDLELGFDYWGQGTLVTVSS
VL: DIVMTQAAPSIPVIPGESVSMSCRSSKSLLYSNGHTYVYWFVQRPGQSPQLLIYRMSNLASGVPDRFSGSGSGTAFTLRISRVEAEDVGVYYCMQNLEFPLTFGAGTKLELK
notes: also called antibody 8D12; 8D12 Antibody

What was measured:
[1] = target: T1, hGDF11 homodimer; experiment: cell-based or functional assay
[2] = target: T2, Human GDF8 homodimer (mature human …); experiment: cell-based or functional assay
[3] = target: T1, hGDF11 homodimer; experiment: SPR, antibody captured, 25 nM antigen
Protocol: (§1) Equilibrium dissociation constants (KD values) for antigen binding to selected antibodies were determined by surface kinetics using a real-time biosensor surface plasmon resonance assay (BIACORE™ 2000). Each selected antibody was captured on either a goat anti-mouse IgG polyclonal antibody surface or a goat anti-hFc polyclonal antibody (Jackson Immuno Research Lab) surface created through direct chemical coupling to a BIACORE™ chip to form a captured antibody surface. Human GDF8 homodimer, hGDF11 homodimer, or hGDF5 homodimer at 25 nM was injected over the captured antibody surfaces, and antigen-antibody binding and dissociation were monitored in real time at room temperature. Kinetic analysis was performed to calculate KD, dissociation rate constants (kd), association rate constants (ka) and half-life of antigen/antibody complex dissociation (Table 2).

[4] = target: T2, Human GDF8 homodimer (mature human …); experiment: SPR, antibody captured, 25 nM antigen
Protocol: as §1

[5] = target: T3, B48 chimera: …; experiment: Western blot of CHO.hFurin supernatant, antibody 2 µg/ml
Protocol: (§2) The various chimeric GDF8 pro-proteins were transiently transfected in an engineered stable CHO.hFurin cell line. A similar Western Blot analysis as described above was used to detect the binding of various anti-hGDF8 antibodies to each of the chimeric GDF8. Briefly, […] of CHO supernatant were loaded onto each lane of an SDS-PAGE (non-reducing or reducing) gel and electroblotted onto a PVDF membrane. The membrane was then incubated with an anti-GDF8 antibody at 2 μg/ml followed by exposure to the appropriate secondary antibody conjugated to HRP.

[6] = target: T4, B91 chimera: …; experiment: as above
Protocol: as §2

[7] = target: T5, T65 chimera: …; experiment: as above
Protocol: as §2

[8] = target: T1, hGDF11 homodimer; experiment: cell-based or functional assay; remark: listed apart in the source
[9] = target: T2, Human GDF8 homodimer (mature human …); experiment: cell-based or functional assay; remark: listed apart in the source
[10] = target: T6, GDF8/TGFβ[48-72] chimera (T48): …; experiment: cell-based or functional assay
[11] = target: T2, Human GDF8 homodimer (mature human …); experiment: SPR Biacore 3000, buffer without BSA
[12] = target: T3, B48 chimera: …; experiment: Western blot of CHO.hFurin supernatant
Protocol: as §2

[13] = target: T6, GDF8/TGFβ[48-72] chimera (T48): …; experiment: Western blot of CHO.hFurin supernatant
Protocol: as §2

[14] = target: T2, Human GDF8 homodimer (mature human …); experiment: SPR, antibody captured, buffer without BSA
Protocol: as §1

Binder	IC50, GDF11-inducible luciferase, A204/Smad2 cells, 0.8 nM GDF11 [1] [nM]	IC50, GDF8-inducible luciferase, A204/Smad2 cells, 0.8 nM GDF8 [2] [nM]	Kd [3] [nM]	T1/2 [3] [h]	Kd [4] [nM]	T1/2 [4] [h]	binding result [5]	binding result [6]	binding result [7]	IC50, luciferase bioassay, 0.4 nM GDF11 [8] [nM]	IC50, luciferase bioassay, 0.8 nM GDF11 [8] [nM]	IC50, luciferase bioassay, 0.5 nM GDF8 [9] [nM]	IC50, luciferase bioassay, 1 nM GDF8 [9] [nM]	approximate IC50, luciferase bioassay with GDF8/TGFβ[48-72] conditioned medium [10] [nM]	Kd [11] [nM]	T1/2 [11] [h]	binding result [12]	binding result [13]	Kd [14] [nM]	T1/2 [14] [h]
B1	1400	0.8	0.3	0.467	0.32	1	binds	binds	binds	~600	~800	0.196	0.363							
B2														0.357						
B3												3.11	5.55		0.071	2.32	no binding (tested: 2 µg/ml)	no binding (tested: 2 µg/ml)	0.016	14
